Assay results from IntAct's records for PubMed 19829382.

B1: Scaffold protein ILK (Mus musculus), O55222 (parent)
chain: MDDIFTQCREGNAVAVRLWLDNTENDLNQGDDHGFSPLHWACREGRSAVVEMLIMRGARINVMNRGDDTPLHLAASHGHRDIVQKLLQYKADINAVNEHGNVPLHYACFWGQDQVAEDLVANGALVSICNKYGEMPVDKAKAPLRELLRERAEKMGQNLNRIPYKDTFWKGTTRTRPRNGTLNKHSGIDFKQLNFLAKLNENHSGELWKGRWQGNDIVVKVLKVRDWSTRKSRDFNEECPRLRIFSHPNVLPVLGACQAPPAPHPTLITHWMPYGSLYNVLHEGTNFVVDQSQAVKFALDMARGMAFLHTLEPLIPRHALNSRSVMIDEDMTARISMADVKFSFQCPGRMYAPAWVAPEALQKKPEDTNRRSADMWSFAVLLWELVTREVPFADLSNMEIGMKVALEGLRPTIPPGISPHVCKLMKICMNEDPAKRPKFDMIVPILEKMQDK
partner: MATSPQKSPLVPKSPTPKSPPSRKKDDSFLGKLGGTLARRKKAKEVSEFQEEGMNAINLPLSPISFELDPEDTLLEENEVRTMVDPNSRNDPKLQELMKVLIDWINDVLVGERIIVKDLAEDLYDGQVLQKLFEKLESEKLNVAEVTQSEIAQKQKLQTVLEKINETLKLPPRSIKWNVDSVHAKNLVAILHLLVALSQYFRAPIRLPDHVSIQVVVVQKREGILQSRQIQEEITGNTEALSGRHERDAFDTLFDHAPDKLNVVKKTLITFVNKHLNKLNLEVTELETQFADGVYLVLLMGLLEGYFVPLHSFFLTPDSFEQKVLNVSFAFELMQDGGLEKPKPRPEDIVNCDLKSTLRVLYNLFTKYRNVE

Variants of: B1
Settings: with parva_mouse Parva

effect of a mutation on the interaction | Variant
decreasing interaction strength | K220A
decreasing interaction strength | K220M
